Results on 14 substances are retold here after US20160304570A1.

Where two headings read alike, the source gives them in different places.

Targets include human Nav1.5 (human) (UniProt Q14524); human Nav1.3 (human) (UniProt Q9NY46); human Nav1.7 (human) (UniProt Q15858).
Common to all, as to assay: cell-based or functional assay
The target in experiment [1] is human Nav1.5 voltage-gated sodium channel (human) (UniProt Q14524).
The target in experiment [2] is human voltage-gated sodium channel Nav1.5 (human) (UniProt Q14524).
For experiment [3], the target named is human voltage-gated sodium channel Nav1.3 (human) (UniProt Q9NY46).
In experiment [4] the target is human voltage-gated sodium channel Nav1.7 (human) (UniProt Q15858).
Chain of human voltage-gated sodium channel Nav1.7 (human) (Q15858 whole entry): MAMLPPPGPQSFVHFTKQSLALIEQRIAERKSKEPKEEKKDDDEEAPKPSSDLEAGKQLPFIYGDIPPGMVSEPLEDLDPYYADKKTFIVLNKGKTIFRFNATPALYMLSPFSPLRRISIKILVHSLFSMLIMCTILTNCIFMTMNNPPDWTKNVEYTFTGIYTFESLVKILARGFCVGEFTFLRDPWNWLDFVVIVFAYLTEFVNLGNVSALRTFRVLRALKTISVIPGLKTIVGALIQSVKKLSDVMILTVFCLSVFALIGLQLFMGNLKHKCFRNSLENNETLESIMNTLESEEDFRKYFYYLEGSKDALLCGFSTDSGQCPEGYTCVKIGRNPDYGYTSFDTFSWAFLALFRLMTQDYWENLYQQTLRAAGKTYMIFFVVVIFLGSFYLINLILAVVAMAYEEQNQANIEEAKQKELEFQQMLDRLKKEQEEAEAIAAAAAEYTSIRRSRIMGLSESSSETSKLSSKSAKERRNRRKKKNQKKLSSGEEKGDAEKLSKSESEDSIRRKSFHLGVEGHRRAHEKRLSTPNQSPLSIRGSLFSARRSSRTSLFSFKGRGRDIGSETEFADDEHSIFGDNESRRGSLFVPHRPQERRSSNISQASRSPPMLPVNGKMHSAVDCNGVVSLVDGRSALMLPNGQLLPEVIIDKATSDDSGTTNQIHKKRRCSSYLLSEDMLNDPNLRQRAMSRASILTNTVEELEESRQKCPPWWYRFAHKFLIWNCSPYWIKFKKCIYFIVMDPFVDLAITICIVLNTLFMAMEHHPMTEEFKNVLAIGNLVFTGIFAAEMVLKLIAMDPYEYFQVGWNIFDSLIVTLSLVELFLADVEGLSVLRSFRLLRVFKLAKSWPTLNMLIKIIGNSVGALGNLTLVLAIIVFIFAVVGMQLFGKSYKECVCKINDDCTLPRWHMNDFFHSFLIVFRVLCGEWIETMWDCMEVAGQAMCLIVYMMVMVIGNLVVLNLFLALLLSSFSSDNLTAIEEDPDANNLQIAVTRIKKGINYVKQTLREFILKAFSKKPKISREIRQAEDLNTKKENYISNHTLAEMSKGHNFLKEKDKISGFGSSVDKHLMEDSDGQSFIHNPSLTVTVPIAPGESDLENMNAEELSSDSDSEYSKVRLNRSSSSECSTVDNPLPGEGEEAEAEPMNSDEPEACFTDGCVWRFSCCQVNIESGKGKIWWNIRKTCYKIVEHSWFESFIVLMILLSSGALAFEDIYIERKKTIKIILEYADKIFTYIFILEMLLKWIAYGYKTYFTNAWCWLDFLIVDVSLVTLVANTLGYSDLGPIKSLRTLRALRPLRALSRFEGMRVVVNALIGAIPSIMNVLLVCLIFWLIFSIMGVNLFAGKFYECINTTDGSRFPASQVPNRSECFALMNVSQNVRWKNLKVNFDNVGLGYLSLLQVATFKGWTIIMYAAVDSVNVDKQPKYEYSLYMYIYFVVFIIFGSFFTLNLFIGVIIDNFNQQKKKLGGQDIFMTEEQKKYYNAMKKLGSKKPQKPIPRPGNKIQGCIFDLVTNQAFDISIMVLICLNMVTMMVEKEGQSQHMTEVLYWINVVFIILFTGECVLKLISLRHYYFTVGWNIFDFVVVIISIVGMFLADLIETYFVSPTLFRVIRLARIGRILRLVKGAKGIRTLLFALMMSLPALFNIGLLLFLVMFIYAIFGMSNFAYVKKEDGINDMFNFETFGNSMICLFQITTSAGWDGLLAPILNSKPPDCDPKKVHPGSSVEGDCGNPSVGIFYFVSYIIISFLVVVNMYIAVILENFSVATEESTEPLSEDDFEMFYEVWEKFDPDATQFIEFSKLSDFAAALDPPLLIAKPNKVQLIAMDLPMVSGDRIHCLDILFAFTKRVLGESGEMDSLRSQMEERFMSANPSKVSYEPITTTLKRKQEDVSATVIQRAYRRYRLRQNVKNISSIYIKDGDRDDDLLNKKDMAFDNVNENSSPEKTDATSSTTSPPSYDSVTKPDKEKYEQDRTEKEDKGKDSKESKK
In experiment [5] the target is human voltage-gated sodium channel Nav1.5 (human) (UniProt Q14524). The source holds these as a separate data set.
The target of experiment [6] is human voltage-gated sodium channel Nav1.3 (human) (UniProt Q9NY46). The source holds these as a separate data set.
In experiment [7] the target is human voltage-gated sodium channel Nav1.7 (human) (UniProt Q15858). The source holds these as a separate data set.
For experiment [8], the target named is human voltage-gated sodium channel Nav1.3 (human) (UniProt Q9NY46). This is another data set of the same source.
In experiment [9] the target is human voltage-gated sodium channel Nav1.5 (human) (UniProt Q14524). This is another data set of the same source.
Experiment [10] deals with human voltage-gated sodium channel Nav1.3 (human) (UniProt Q9NY46). This is another data set of the same source.
For experiment [11], the target named is human voltage-gated sodium channel Nav1.7 (human) (UniProt Q15858). This is another data set of the same source.
In experiment [12] the target is human Nav1.7 voltage-gated sodium channel (human) (UniProt Q15858).
Chain of human Nav1.7 voltage-gated sodium channel (human) (Q15858 whole entry): as above
For experiment [13], the target named is human Nav1.5 voltage-gated sodium channel (human) (UniProt Q14524). The source holds these as a separate data set.
Experiment [14] addresses human Nav1.3 voltage-gated sodium channel (human) (UniProt Q9NY46).
Experiment [15] deals with human voltage-gated sodium channel Nav1.5 (human) (UniProt Q14524). The source holds these as a separate data set.
The target of experiment [16] is human voltage-gated sodium channel Nav1.3 (human) (UniProt Q9NY46). This is another data set of the same source.
Experiment [17] addresses human voltage-gated sodium channel Nav1.7 (human) (UniProt Q15858). The source holds these as a separate data set.
Experiment [18] concerns the target human voltage-gated sodium channel Nav1.5 (human) (UniProt Q14524). The source holds these as a separate data set.
Experiment [19] addresses human voltage-gated sodium channel Nav1.3 (human) (UniProt Q9NY46). This is another data set of the same source.
Experiment [20] addresses human voltage-gated sodium channel Nav1.7 (human) (UniProt Q15858). This is another data set of the same source.
Experiment [21] has as its target human voltage-gated sodium channel Nav1.5 (human) (UniProt Q14524). The source holds these as a separate data set.
The target in experiment [22] is human Nav1.7 voltage-gated sodium channel (human) (UniProt Q15858). The source holds these as a separate data set.
Experiment [23] has as its target human voltage-gated sodium channel Nav1.3 (human) (UniProt Q9NY46). This is another data set of the same source.
The target of experiment [24] is human ERG (hERG) potassium channel (human) (UniProt Q12809).
Chain of human ERG (hERG) potassium channel (human) (Q12809 whole entry): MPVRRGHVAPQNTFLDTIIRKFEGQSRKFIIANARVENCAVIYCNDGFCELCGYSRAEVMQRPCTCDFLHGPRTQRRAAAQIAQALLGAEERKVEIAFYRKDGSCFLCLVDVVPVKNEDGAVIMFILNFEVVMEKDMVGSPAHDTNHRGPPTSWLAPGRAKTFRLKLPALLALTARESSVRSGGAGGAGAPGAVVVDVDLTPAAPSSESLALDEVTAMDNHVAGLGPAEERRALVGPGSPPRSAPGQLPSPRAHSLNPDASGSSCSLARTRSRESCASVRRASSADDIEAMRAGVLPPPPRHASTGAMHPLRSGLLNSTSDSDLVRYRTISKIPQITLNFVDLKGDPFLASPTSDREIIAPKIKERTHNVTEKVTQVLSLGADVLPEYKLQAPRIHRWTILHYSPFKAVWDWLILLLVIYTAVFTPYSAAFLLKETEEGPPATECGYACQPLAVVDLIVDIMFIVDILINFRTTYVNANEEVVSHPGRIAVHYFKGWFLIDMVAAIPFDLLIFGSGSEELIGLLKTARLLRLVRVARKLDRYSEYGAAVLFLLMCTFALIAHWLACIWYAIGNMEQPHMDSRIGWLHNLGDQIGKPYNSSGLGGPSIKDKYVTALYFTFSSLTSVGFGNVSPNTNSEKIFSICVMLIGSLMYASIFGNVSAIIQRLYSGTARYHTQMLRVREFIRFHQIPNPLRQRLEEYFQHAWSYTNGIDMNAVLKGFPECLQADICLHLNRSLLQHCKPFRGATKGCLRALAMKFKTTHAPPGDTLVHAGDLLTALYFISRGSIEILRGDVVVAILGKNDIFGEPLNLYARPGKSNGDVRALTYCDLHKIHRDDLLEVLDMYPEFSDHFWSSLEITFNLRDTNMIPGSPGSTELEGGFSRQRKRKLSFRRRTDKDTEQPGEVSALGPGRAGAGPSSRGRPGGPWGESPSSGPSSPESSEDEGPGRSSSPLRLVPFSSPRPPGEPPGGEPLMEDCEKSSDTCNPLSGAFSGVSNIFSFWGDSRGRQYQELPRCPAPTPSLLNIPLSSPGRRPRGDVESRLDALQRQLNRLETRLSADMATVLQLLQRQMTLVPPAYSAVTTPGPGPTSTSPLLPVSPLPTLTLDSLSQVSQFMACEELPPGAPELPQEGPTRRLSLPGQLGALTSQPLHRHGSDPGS
The target in experiment [25] is human voltage-gated sodium channel Nav1.7 (human) (UniProt Q15858). The source holds these as a separate data set.
Experiment [26] concerns the target human Nav1.3 voltage-gated sodium channel (human) (UniProt Q9NY46). The source holds these as a separate data set.
The target of experiment [27] is human Nav1.4 voltage-gated sodium channel (human) (UniProt P35499).
Chain of human Nav1.4 voltage-gated sodium channel (human) (P35499 whole entry): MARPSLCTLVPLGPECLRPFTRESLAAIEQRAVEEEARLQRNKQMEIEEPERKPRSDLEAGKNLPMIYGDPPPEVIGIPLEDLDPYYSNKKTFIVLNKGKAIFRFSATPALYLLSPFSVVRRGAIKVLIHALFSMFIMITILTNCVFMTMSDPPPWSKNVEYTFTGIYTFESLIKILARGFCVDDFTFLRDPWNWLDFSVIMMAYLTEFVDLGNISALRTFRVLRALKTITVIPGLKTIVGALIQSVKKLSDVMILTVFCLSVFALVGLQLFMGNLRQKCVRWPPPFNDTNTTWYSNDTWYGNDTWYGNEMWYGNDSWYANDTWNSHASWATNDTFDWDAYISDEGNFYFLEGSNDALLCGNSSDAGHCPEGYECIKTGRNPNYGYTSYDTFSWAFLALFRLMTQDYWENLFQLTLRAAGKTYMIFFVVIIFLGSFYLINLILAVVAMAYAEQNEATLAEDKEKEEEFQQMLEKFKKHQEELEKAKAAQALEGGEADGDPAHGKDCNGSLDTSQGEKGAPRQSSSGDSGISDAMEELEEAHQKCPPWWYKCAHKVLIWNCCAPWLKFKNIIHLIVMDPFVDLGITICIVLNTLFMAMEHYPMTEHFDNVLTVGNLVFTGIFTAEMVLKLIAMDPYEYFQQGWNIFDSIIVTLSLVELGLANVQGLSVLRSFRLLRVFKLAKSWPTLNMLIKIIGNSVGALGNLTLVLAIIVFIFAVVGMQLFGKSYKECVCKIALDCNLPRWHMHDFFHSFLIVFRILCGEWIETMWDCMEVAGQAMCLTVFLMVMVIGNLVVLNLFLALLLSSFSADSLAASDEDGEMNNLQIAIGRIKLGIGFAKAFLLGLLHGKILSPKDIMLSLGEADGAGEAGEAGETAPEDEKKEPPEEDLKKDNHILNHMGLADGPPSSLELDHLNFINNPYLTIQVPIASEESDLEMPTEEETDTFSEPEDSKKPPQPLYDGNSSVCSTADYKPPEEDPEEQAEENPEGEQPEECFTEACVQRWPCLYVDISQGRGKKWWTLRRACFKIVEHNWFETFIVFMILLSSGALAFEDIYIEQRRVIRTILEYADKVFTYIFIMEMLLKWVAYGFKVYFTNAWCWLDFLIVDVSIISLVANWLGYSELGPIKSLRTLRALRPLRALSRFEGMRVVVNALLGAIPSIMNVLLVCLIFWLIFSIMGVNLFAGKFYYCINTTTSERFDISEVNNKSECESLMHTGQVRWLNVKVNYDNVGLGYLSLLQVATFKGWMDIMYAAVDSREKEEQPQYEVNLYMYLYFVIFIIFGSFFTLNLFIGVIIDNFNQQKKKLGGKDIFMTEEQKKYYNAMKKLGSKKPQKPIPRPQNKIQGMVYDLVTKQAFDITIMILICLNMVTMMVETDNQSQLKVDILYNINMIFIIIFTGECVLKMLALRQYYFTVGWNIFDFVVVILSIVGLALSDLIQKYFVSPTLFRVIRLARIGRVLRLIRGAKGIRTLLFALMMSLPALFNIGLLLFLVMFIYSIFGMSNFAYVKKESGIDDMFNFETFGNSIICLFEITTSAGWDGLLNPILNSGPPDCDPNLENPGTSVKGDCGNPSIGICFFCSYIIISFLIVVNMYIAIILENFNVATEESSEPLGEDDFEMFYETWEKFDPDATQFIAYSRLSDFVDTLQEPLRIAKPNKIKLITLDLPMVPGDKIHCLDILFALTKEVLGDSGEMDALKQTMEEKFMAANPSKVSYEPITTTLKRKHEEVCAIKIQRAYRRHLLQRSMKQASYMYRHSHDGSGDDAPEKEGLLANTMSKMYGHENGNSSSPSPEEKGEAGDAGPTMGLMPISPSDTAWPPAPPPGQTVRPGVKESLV
Experiment [28] deals with human voltage-gated sodium channel Nav1.4 (human) (UniProt P35499).
Chain of human voltage-gated sodium channel Nav1.4 (human) (P35499 whole entry): as above

Chain of human Nav1.7 (human) (Q15858 whole entry): as the sequence (Q15858 whole entry) above

For the substance Ac-GpTx-1(1-34) (peptide), the Nav1.5 Use IC50 (µM), PatchXpress electrophysiology in experiment [1] is over 10 µM.
For the substance GpTx-1(1-34) (peptide), the IWQ Use Nav1.5 (µM) (IC50, IonWorks Quattro population patch clamp) in experiment [2] and in experiment [21] was 13.1 µM throughout. Further, the IWQ Use Nav1.3 (µM) (IC50, IonWorks Quattro population patch clamp) in [3] and in experiment [23] was 0.08 µM throughout. Further, the IWQ Use Nav1.7 (µM) (IC50, IonWorks Quattro population patch clamp) in experiment [4] and in experiment [25] was 0.08 µM throughout. The IWQ Use Nav1.5 in [5], in experiment [13], in experiment [15], in experiment [18], in experiment [21] and in experiment [1] was 13.1 µM each time. Besides, the IWQ Use Nav1.3 in experiment [6], in [8], in experiment [14], in experiment [16], in experiment [19] and in [23] was 0.08 µM throughout. Further, the IWQ Use Nav1.3 in experiment [26] came out at 0.08 µM. Further, the IWQ Use Nav1.7 in experiment [7], in [12], in experiment [17], in experiment [20], in [22] and in experiment [25] was 0.08 µM each time. Moreover, the IWQ Use Nav1.5 (µM); IC50 of peak inward current, IonWorks Quattro in experiment [9], in [21] and in experiment [1] was 13.1 µM throughout. The IWQ Use Nav1.3 (µM); IC50 of peak inward current, IonWorks Quattro in [10], in experiment [23] and in [26] was 0.08 µM in each case. Also, the IWQ Use Nav1.7 (µM); IC50 of peak inward current, IonWorks Quattro in experiment [11], in experiment [22] and in [25] was 0.08 µM throughout. The IWQ Use Nav1.5 (µM): IC50 of peak inward current, IonWorks Quattro in [21] turned out to be 13.1 µM. The same substance registered a Nav1.5 Use IC50 (PatchXpress whole cell patch clamp) in experiment [21] of over 10000 nM. Further, in [22], the IC50, peak inward hNav1.7 current, whole cell patch clamp, cells held at -140 mV worked out at 7.4 nM. Besides, the IWQ Use Nav1.7 (µM): IC50 of peak inward current block, IonWorks Quattro in [22] stood at 0.08 µM. Also, the inhibition of NaV1.7 activity, IonWorks Quattro, venom sub-fraction 11 in experiment [22] is over 90%. The substance further had an IWQ Use Nav1.5 (µM) [IC50, IonWorks Quattro electrophysiology] with human Nav1.5 (human) of 13.1 µM. In addition, the IWQ Use Nav1.3 (µM) [IC50, IonWorks Quattro electrophysiology] in the experiment with human Nav1.3 (human) was 0.08 µM. The substance also returned an IWQ Use Nav1.3 (µM): IC50 of peak inward current, IonWorks Quattro in experiment [23] of 0.08 µM. The substance also returned a Nav1.3 Use IC50 (PatchXpress whole cell patch clamp) in [23] of 10 nM. The substance further showed an IWQ Use Nav1.7 (µM) [IC50, IonWorks Quattro electrophysiology] in the experiment with human Nav1.7 (human) of 0.08 µM. This substance displayed an IC50, hERG current, PatchXpress counterscreen in experiment [24] of over 10000 nM. In experiment [1], this substance displayed an IC50, hNav1.5 current, PatchXpress counterscreen of 9800 nM. In addition, in [1], the IC50, peak inward hNav1.5 current, whole cell patch clamp, cells held at -140 mV is 8900 nM. In experiment [1], this substance yielded an IWQ Use Nav1.5 (µM): IC50 of peak inward current block, IonWorks Quattro of 13.1 µM. This substance yielded an IWQ Use Nav1.7 (µM): IC50 of peak inward current, IonWorks Quattro in experiment [25] of 0.08 µM. The Nav1.7 Use IC50 (PatchXpress whole cell patch clamp) in [25] is 5 nM. Further, the Nav1.7 Use IC50 (µM); PatchXpress whole cell patch clamp electrophysiology in [25] was 0.005 µM. For the same substance, the IC50, peak inward hNav1.3 current, whole cell patch clamp, cells held at -140 mV in experiment [26] amounted to 16.8 nM. Besides, the IWQ Use Nav1.3 (µM): IC50 of peak inward current block, IonWorks Quattro in experiment [26] came out at 0.08 µM.
GpTx-1(1-34)-FreeAcid (peptide): the IWQ Use Nav1.5 (µM) (IC50, IonWorks Quattro population patch clamp) in [21] came out at 9.44 µM. In addition, the IWQ Use Nav1.3 (µM) (IC50, IonWorks Quattro population patch clamp) in [23] worked out at 0.54 µM.
Regarding GpTx-2 (peptide), in experiment [12], the IWQ Use Nav1.7 was 4.34 µM. Moreover, the IWQ Use Nav1.5 in experiment [13] worked out at 7.21 µM. Also, in experiment [14], the IWQ Use Nav1.3 turned out to be 1.15 µM.
On to GpTx-3 (peptide), for which the IWQ Use Nav1.7 in experiment [12] came out at 8.93 µM. This substance registered an IWQ Use Nav1.4 in experiment [27] of 20 µM. The IWQ Use Nav1.5 in experiment [13] came to 7.8 µM. The same substance had an IWQ Use Nav1.3 in experiment [14] of 9.37 µM.
For GpTx-4 (peptide) the same measures were 9.25 µM, 11 µM, 10.4 µM and 4.92 µM.
For GpTx-6(1-34) (peptide) the same measures were 1.3 µM, 4.1 µM, 7.3 µM and 0.54 µM.
The substance GpTx-6(1-35) (peptide) returned an IWQ Use Nav1.7 in [12] of 9.6 µM. The same substance returned an IWQ Use Nav1.4 in experiment [27] of 17.4 µM. The IWQ Use Nav1.5 in experiment [13] was 14.6 µM. The same substance gave an IWQ Use Nav1.3 in experiment [14] of 1.7 µM.
As to Huwentoxin-I (peptide), the Nav1.5 Use IC50 (PatchXpress whole cell patch clamp) in [21] is over 30000 nM. In experiment [28], this substance came in with a Nav1.4 Use IC50 (PatchXpress whole cell patch clamp) of 24900 nM. Further, the Nav1.3 Use IC50 (PatchXpress whole cell patch clamp) in experiment [23] worked out at 905 nM.
For Huwentoxin-IV (peptide), in experiment [28], the Nav1.4 Use IC50 (PatchXpress whole cell patch clamp) worked out at 4500 nM. In experiment [23], this substance returned a Nav1.3 Use IC50 (PatchXpress whole cell patch clamp) of 22 nM. The Nav1.7 Use IC50 (PatchXpress whole cell patch clamp) in [25] is 32 nM.
ProTxII (peptide): the Nav1.5 Use IC50 (PatchXpress whole cell patch clamp) in [21] was 104 nM. Besides, the Nav1.4 Use IC50 (PatchXpress whole cell patch clamp) in [28] worked out at 32 nM. The same substance had a Nav1.3 Use IC50 (PatchXpress whole cell patch clamp) in experiment [23] of 15 nM. The substance further had a Nav1.7 Use IC50 (PatchXpress whole cell patch clamp) in experiment [25] of 2 nM.
“[Ala5;Phe6;Leu26;Arg28]GpTx-1(1-34) (peptide)” yielded an IWQ Use Nav1.7 (µM); IC50 of peak inward current, IonWorks Quattro in experiment [12] of 0.05 µM. Besides, the IWQ Use Nav1.4 (µM); IC50 of peak inward current, IonWorks Quattro in experiment [27] stood at 5 µM. Also, the IWQ Use Nav1.5 (µM); IC50 of peak inward current, IonWorks Quattro in experiment [13] was determined as 5 µM. The substance further yielded an IWQ Use Nav1.3 (µM); IC50 of peak inward current, IonWorks Quattro in experiment [14] of 0.04 µM. In [21], this substance showed a Nav1.5 Use IC50 (PatchXpress electrophysiology) of over 10 µM. The substance further came in with a Nav1.3 Use IC50 (PatchXpress electrophysiology) in experiment [23] of 0.008 µM. The Nav1.7 Use IC50 (PatchXpress electrophysiology) in [25] turned out to be 0.002 µM.
In experiment [22], [D-Phe5]GpTx-1(1-34) (peptide) had an IWQ Use Nav1.7 (µM): IC50 of peak inward current, IonWorks Quattro of 1.23 µM.
The substance [D-Phe34]GpTx-1(1-34) (peptide) came in with an IWQ Use Nav1.5 in experiment [5] of 20.7 µM. Also, the IWQ Use Nav1.3 in experiment [6] turned out to be 0.52 µM. In experiment [7], this substance gave an IWQ Use Nav1.7 of 0.98 µM.
